Legend:
[1] = molecular target: PRRSV nsp11 mutant S74A, pET-30a (+) construct (PRRSV strain WUH3)
[2] = molecular target: PRRSV nsp11 mutant G138A (PRRSV strain WUH3); assay: SEC; data not shown; Superdex 75 10/300 GL under the same buffer conditions (20 mM Tris-HCl pH 7.4, 200 mM NaCl), 1 mg protein
[3] = molecular target: PRRSV nsp11 mutant S166A (PRRSV strain WUH3); assay: as above
[4] = molecular target: PRRSV nsp11 mutant F76A, pET-30a (+) construct (PRRSV strain WUH3)
[5] = molecular target: PRRSV nsp11 mutant R55A (PRRSV strain WUH3); assay: SEC; data not shown; Superdex 75 10/300 GL under the same buffer conditions (20 mM Tris-HCl pH 7.4, 200 mM NaCl), 1 mg protein
[6] = molecular target: PRRSV nsp11 mutant S74A made on the K173A template; assay: sedimentation velocity analytical ultracentrifugation (AUC)
[7] = molecular target: PRRSV nsp11 mutant R153A made on the K173A template; assay: as above
[8] = molecular target: PRRSV nsp11 mutant Y69A (PRRSV strain WUH3); assay: SEC; data not shown; Superdex 75 10/300 GL under the same buffer conditions (20 mM Tris-HCl pH 7.4, 200 mM NaCl), 1 mg protein
[9] = molecular target: PRRSV nsp11 mutant L54A (PRRSV strain WUH3); assay: as above
[10] = molecular target: PRRSV nsp11 mutant G137A (PRRSV strain WUH3); assay: as above
[11] = molecular target: PRRSV nsp11 mutant F76A made on the K173A template; assay: sedimentation velocity analytical ultracentrifugation (AUC)
[12] = molecular target: PRRSV nsp11 mutant G1A (PRRSV strain WUH3); assay: SEC; data not shown; Superdex 75 10/300 GL under the same buffer conditions (20 mM Tris-HCl pH 7.4, 200 mM NaCl), 1 mg protein
[13] = molecular target: PRRSV nsp11 mutant V165A (PRRSV strain WUH3); assay: as above
[14] = molecular target: PRRSV nsp11 mutant K173A, pET-42b (+) construct with C-terminal His6 tag (PRRSV strain WUH3); assay: AUC; sedimentation velocity, 45,000 rpm, 18°C, 280 nm, c(s) distribution with Sedfit
[15] = molecular target: PRRSV nsp11 mutant K173A, pET-42b (+) construct with C-terminal His6 tag (PRRSV strain WUH3); assay: SEC; Superdex 75 10/300 GL, 20 mM Tris-HCl pH 7.4, 200 mM NaCl, 0.6 ml/min, 4°C, 1 mg protein; masses from a calibration curve; fractions checked by SDS-PAGE
[16] = parent: 4.396 (dimer species, 86.67%), 2.614 (monomer species, 14.04%)
[17] = parent: 63.7 (dimer species, 86.67%), 29.2 (monomer species, 14.04%)

PRRSV nsp11 mutant S74A, pET-30a (+) construct (enzyme)
endoribonuclease activity (FRET assay, 2 μM enzyme, 1 μM fluorescent RNA substrate, 25°C), against wild-type nsp11 (fold less than wild type) [1]: > 4

PRRSV nsp11 mutant G138A (enzyme)
stoichiometry N [2]: 2

PRRSV nsp11 mutant S166A (enzyme)
stoichiometry N [3]: 2

PRRSV nsp11 mutant F76A, pET-30a (+) construct (enzyme)
endoribonuclease activity (FRET assay, 2 μM enzyme, 1 μM fluorescent RNA substrate, 25°C), against wild-type nsp11 (fold less than wild type) [4]: > 4

PRRSV nsp11 mutant R55A (enzyme)
stoichiometry N [5]: 2

PRRSV nsp11 mutant K173A, pET-42b (+) construct with C-terminal His6 tag S74A
other: sedimentation coefficient S20,W [6, 16]: 3.32 S | other: calculated molecular weight (MW) from AUC [6, 17]: 50.2

PRRSV nsp11 mutant K173A, pET-42b (+) construct with C-terminal His6 tag R153A
other: sedimentation coefficient S20,W [7, 16]: 3.4 S | other: calculated molecular weight (MW) from AUC [7, 17]: 40.7

PRRSV nsp11 mutant Y69A (enzyme)
stoichiometry N [8]: 2

PRRSV nsp11 mutant L54A (enzyme)
stoichiometry N [9]: 2

PRRSV nsp11 mutant G137A (enzyme)
stoichiometry N [10]: 2

PRRSV nsp11 mutant K173A, pET-42b (+) construct with C-terminal His6 tag F76A
other: sedimentation coefficient S20,W [11, 16]: 3.07 S | other: calculated molecular weight (MW) from AUC [11, 17]: 37.8

PRRSV nsp11 mutant G1A (enzyme)
stoichiometry N [12]: 2

PRRSV nsp11 mutant V165A (enzyme)
stoichiometry N [13]: 2

PRRSV nsp11 mutant K173A, pET-42b (+) construct with C-terminal His6 tag (enzyme)
percent dimer [14]: 86.7% | percent monomer [14]: 14% | stoichiometry N [15]: 2

From PMC4836315
